Test results as given in patent US12338483.

Legend:
[1] = tested on: GzmB/MMP AND-gate protease activity sensor
[2] = tested on: T1, GzmB/Thrb AND-gate protease activity sensor
T1 sequence: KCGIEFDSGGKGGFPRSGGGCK

[3] = tested on: GzmB substrate (individual protease substrate labeled with a fluorescent quencher and dye, nanoparticle-conjugated)
[4] = tested on: Thrb substrate (individual protease substrate labeled with a fluorescent quencher and dye, nanoparticle-conjugated)
[5] = tested on: MMP substrate (Example 3)
[6] = tested on: MMP substrate of the biocomparator peptide cage (Example 4)

Sequence of MMP1 (P03956 100-469): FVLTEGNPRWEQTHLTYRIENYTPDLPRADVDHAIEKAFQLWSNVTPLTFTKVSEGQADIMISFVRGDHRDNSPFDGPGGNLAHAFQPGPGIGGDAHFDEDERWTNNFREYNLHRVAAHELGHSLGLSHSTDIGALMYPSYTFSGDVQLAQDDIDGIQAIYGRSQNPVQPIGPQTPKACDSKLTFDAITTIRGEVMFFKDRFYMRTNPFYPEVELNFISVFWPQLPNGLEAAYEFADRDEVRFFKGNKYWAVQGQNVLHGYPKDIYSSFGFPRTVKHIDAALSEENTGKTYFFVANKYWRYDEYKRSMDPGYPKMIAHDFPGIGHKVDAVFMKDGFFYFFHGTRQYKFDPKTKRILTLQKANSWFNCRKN

Row | Substance | change in fluorescence in a cleavage assay (AND-gate sensor) [2] | change in fluorescence in a cleavage assay (quenched substrate) [3] | change in fluorescence in a cleavage assay (quenched substrate) [4] | change in fluorescence in a cleavage assay (kinetic trace) [5] | other results
1 | granzyme B (GzmB) | The reporter molecule emits a high fluorescent signal when both proteases are present together but not when either protease is present alone | the GzmB substrate was cleaved effectively by GzmB alone | the Thrb substrate was cleaved only by Thrb |  | fluorescent signal in a cleavage assay (AND-gate sensor with each MMP, with and without GzmB) [1]: > 2 fold
2 | MMP1 |  |  |  | The substrate was cleaved with high activity by MMP1, MMP8, and MMP13 | 
3 | thrombin (Thrb) | The reporter molecule emits a high fluorescent signal when both proteases are present together but not when either protease is present alone | the GzmB substrate was cleaved effectively by GzmB alone | the Thrb substrate was cleaved only by Thrb |  | 
4 | MMP9 |  |  |  |  | fluorescent cleavage assay [6]: Results also confirmed MMP9 can cleave the MMP substrate by cleavage assay
5 | MMP13 |  |  |  | The substrate was cleaved with high activity by MMP1, MMP8, and MMP13 | 
6 | MMP8 |  |  |  | The substrate was cleaved with high activity by MMP1, MMP8, and MMP13 | fluorescent signal in a cleavage assay (AND-gate sensor with GzmB and a second protease) [1]: The sensor produced low signals with the viral proteases compared to MMP8
